According to the nanobody polyreactivity screen of Harvey et al. (2022):

test: yeast display, Sf9 membrane polyspecificity reagent, FACS + sequencing; frameworks hold sequencing errors
Outline: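 Nanobodies came from a synthetic yeast display library in Saccharomyces cerevisiae BJ5465, induced with galactose for 36–48 hours and stained for 1 hour at 4 °C with 10% biotinylated, detergent-solubilized Sf9 membrane reagent. Cells were enriched on streptavidin microbeads and then FACS-sorted, with low and high (top ~1%) gates set on anti-HA fluorescence for expression and streptavidin fluorescence for reagent binding. Each polyreactivity label reflects the gate a clone came from. Genes were amplified by colony PCR, sequenced by MiSeq 2 × 250 and filtered by CDR length.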

Row | Sequence | polyreactivity (PSR sort gate)
1 | QVQLQESGGCLVQADGSLRLSCAASGSIFGYYYMGWYRQAPGKDRELVATINICGITNYADSVKGRFTISRDNAKNTVYLQMNSLKPDDTAVYYCAADEYAQRDLGYWGQGTQVTVSS | low polyreactivity
2 | QVQLQESGGDLEQAGGSLLLSCTASGTISEVRVMGWYRQAPGKERELVATISYVTITYYADSVKGRFTISRDSEKHRVSADDEPQTGRYRGVLLSYYWGLGTQVTVSS | low polyreactivity
3 | QVQLQESGGDLVQAGGSLRLSCAASGTIYGLTSMGSYRQRPGKEREFVAAITDGGNTNYADSVKGRFTISRDNAKNTVYLQMISLKPDETAVYYWAVLFSDDAYYAYWGQGTQVTVSS | low polyreactivity
4 | QVQLQESGGGLAQAGGSLRLSCAASGNIFDADIMGWYRKAPGKERELVGSITDGGSTNYVDSVKGRFTISRDNAKNTVHLQMNSLKPEDTAVYYCAAIAYPEIPTYFDYDSDCFNWGHGTQVTVSS | high polyreactivity
5 | QVQLQESGGGLCRRAAASSGAASGTISYLNYMGWYRQAPGKEREFVAGINNGTTTNYADSVKGRFTISRDNAKNTVYLQMNSLKLEDTAVYYCAVDPYYTFYFWYWGQGTQLTVSS | high polyreactivity
6 | QVQLQESGGGLLQAGGCLSCTASGTILVQGDMGWYRHAPGKERELVATINDGASTYYADSVKGRFTISRDKAKNTVYLQKNSLKPDDTAVYYCAVFTDITTYFGYWGQGTQVTVSS | low polyreactivity
7 | QVQLQESGGGLLQAGGSLRLSYAASGYMFPYLAMGWYRQAPGKEREFVAAIGRGSTNNYADSVKGRFTISRDNAKNTAFQQMNSLKPEDTAVYYCAAAASPLTRHLYWGQGSQVTVSS | low polyreactivity
8 | QVQLQESGGGLMQAGGNLRLSCAASGYISTHYDMDWYRPAPGKERELVARIDDGAITNYADSVKGRFTISRDNAKNTVYLQMNSLKPEDTAVYYCAVYSGDDYYHDYWGQGTQVTVSS | low polyreactivity
9 | QVQLQESGGGLMQAGGSLRLSCAASGNIFLGHTKGWYRQAPGNEREFVAGIARGGNPYNADSVKGRFTISRNNAKNTVYLQKNSLKAEDTAVHYCGVQRSHASDYNYWGQGTQVTVSS | low polyreactivity
10 | QVQLQESGGGLMQAGGSQRLSCAASGSISYYSDMGWYRQAPGKEREFVAGIGYGTTTNYADSVKGRFTTSRDNAKNTVYLQMISMKTEDTAVYYCAAYQGNGYEFYYWGQGTQVTVRS | low polyreactivity
11 | QVQLQESGGGLVEAGGSLRLSCAASGTISYAPHMGWYRQAPGKERELVAGITIGGTTNYADSVKGRFTISRDNAKNTVYLQMISLSPGDTALYYCAAHYDQYTPFYYWGQGSQVTVSS | low polyreactivity
12 | QVQLQESGGGLVHAGGSLRLSCPASGTISFINMMGWYRQAPGRERELVASINFGANTNYADSVKGRFTISRDNAKNTVYLQLKSLKPEDTAVYYCAVYCAWTIGFTYWGQGTQVTVRS | high polyreactivity
13 | QVQLQESGGGLVLAGGSLRLNCAESGYISWSFTMGWYRKPTGKEREFVAGITYGGITYYADSVKGRFTISRDNAKNTVYLEMNRLKPEDTAVYYCAAPQSYPYVYVYWGQGTEVTVSS | high polyreactivity
14 | QVQLQESGGGLVQACGSLRLSCAASGSISNGDYMGWYRQAPGKEREFVAGINTGSITYYADSVKGRFTISRDNAKNTAYLQMNSLKPEDTAVYYCAATFDAQFREPKGLYYWGQGTQVTVSS | low polyreactivity
15 | QVQLQESGGGLVQACGSLRLSCAASGYIFSHQYMGWYRQAPGKERELVASISPGATTNYADSVKGRFTISRDNAKNTVYLQMNSLKPEDTAVYYYAVQTPDVIRHFYWGQGTQVTVSS | high polyreactivity
16 | QVQLQESGGGLVQADGSLRLSCAASGSIFGYYYMGWYRQAPGKDRELVATINICGITNYADSVKGRFTISRDNAKNTVYLQMNSLKPDDNAVYYCAADEYAQRDLGYWGQGTQVTVSS | low polyreactivity
17 | QVQLQESGGGLVQAGASLRLSCAASGTIFLFRNMGWHRQAPGKERELVAGINGGTTTYYADSVIGRFTISRDNAKNTVYLQMNSLKPDDTAVYNCAAGASRLTYYDYWGLGTQVTVSS | low polyreactivity
18 | QVQLQESGGGLVQAGGCLRLSCAASGSIFTYAVMGWYRQAHGKEHELVATIDTGSSTYYADSVKGRITISRDNAKNTLYLQMNSLIPEDTAVYYCAVNTYCRVRYRYWGQGTQVTVSS | high polyreactivity
19 | QVQLQESGGGLVQAGGCLSCTASGTIFGQGDMGWSRQSPGKERELVATINDGASTYYADSVKGRFTISRDKAKNTVYLQKNSLKPDDTAVYYCAVLTDITTYFGYWGQGTQVTVSS | low polyreactivity
20 | QVQLQESGGGLVQAGGCLSCTSSGTIFGQGDMGWYRQAPGKERELVATINDGASTYYADSVKGRFTISRDTAKNSVYLQKNSLKPDDTAVYYCAVFTDITTYFGYWGQGTQVTVSS | low polyreactivity
21 | QVQLQESGGGLVQAGGDLRLSCAASGNIFRDYIMGWYRQAPGKEREFVAGIDRGANTNYADSVKGRFTISRDNAINTVYLQMKSLKPVDTAVYYCAVHTAFVPDFIYWGQGTQVTVSS | low polyreactivity
22 | QVQLQESGGGLVQAGGGLRLSCAASGTISGPHVMGSSRQAPRKEREFLAAINVGANTYYADNVKGRFTISRDNAKNTVYLQMNSLKPEDTAVYYCAAVYYGDIGHEYWGQGTQVTVSC | low polyreactivity

Row | Sequence | polyreactivity (PSR sort gate)
23 | QVQLQESGGGLVQAGGGLRLSCAASGTISGPHVMGWYRQAPGKEREFVAAINVGANTYYADNVKGRFTISRDNAKNTVYLQMNSLKPEDTAVYYRAAVYYGDIGHEYWGQGTQVTVSC | low polyreactivity
24 | QVQLQESGGGLVQAGGILRLSCAACGNIFPSAVMGWYRQALGKEREFVATINSGSNTYYADSVKGRFTISRDNAKNTVYLQMNSLKLEDTAVYYCAAYFKLQAWHTYWGQGTQVTVSS | low polyreactivity
25 | QVQLQESGGGLVQAGGILRLSCAASGPISRRSTMGWYRQAPGKERELVTAITRGTNTNYADSVKGRFTISRDNAKNTEYLQMNSLKPEDTAVYYCAAYGVLKPYRGDAVFHRYWGQGTQVTVSS | low polyreactivity
26 | QVQLQESGGGLVQAGGNLRLSCAASGYISRWYGMGWYRQAPGKERELVAGMSPGGSTYYADSVKGRITISRDNAKNTVYLQMNSLKPEDTAVYYCAAQDFQDSIYFYWGQGTQVTVSS | high polyreactivity
27 | QVQLQESGGGLVQAGGSLCMSCAASGSISDYIFMCWYRQAPGKVREFVAGIGIGGKTNYADSVKGRFTIRRDNEKYTVYLQMNSLKPEDTALYYCAANATYTDYYAYCGQGTQVTVSS | low polyreactivity
28 | QVQLQESGGGLVQAGGSLGCEASGNISTRSEMGWYRQAPGKEREFVATINSGGITNYADSVKGRFTISRDNAKNTVYLRMNSLKPEDTAVYYRAVYGYFSDPYDYWGQGTQVTVSS | low polyreactivity
29 | QVQLQESGGGLVQAGGSLRLGCAASGYISGFNEMGWYRQAPGKGRELDAAITYGGITNYADSVKGRFTISRDNAKNTVYLQMNSLKPEDTAMYYCAAGDFDQSNHAYWGQDTQVTVSS | high polyreactivity
30 | QVQLQESGGGLVQAGGSLRLICAESGSISQTVYMGWYRQAPGKEREFVAAINAGASTYYADSVKGRFTISRDNAKNTVYLQMNSLKPEDTAVYYCAAEYYSAAYNRYWGQGTQVTVSS | low polyreactivity
31 | QVQLQESGGGLVQAGGSLRLICSASGTNFTARFIGWYRQAPGKERELVATITDGGNTNHADSVKGRFTISRDNAKNTVFLQMNSLKPEDAAVYYCAAGEVDIDTLLYWGQGSQVTVSS | low polyreactivity
32 | QVQLQESGGGLVQAGGSLRLSCAAIGYISYFVGMGWYRQQPGKEREFVASIADVSNTYYADSVKGRFTISRDNAKNTVYLQRNSLKPEDTAVYYCAVVDSWTYRFDYWGQGTQVTVSS | high polyreactivity
33 | QVQLQESGGGLVQAGGSLRLSCAASCTISQEDWMGWYRQAPGKEREFVAAIGLGSNTNYADSLKGRFTISRDNAKNTVYLQMNSLKPEDTAVYYCAVTVWQYSDHVYRGQGTQVTVSS | low polyreactivity
34 | QVQLQESGGGLVQAGGSLRLSCAASGAIFDGFNMGWYRQAPGKEGEFVAAISYGASTDYADSVKGRFTVSRDNAKNSVYLQMNSLKPEDTAVYYCAVYDELYHVLVYWGRGTQVTVSS | low polyreactivity
35 | QVQLQESGGGLVQAGGSLRLSCAASGNISVTGFMGWYRQAPGKERELVASIGIGGTTYYADSVKGRFSISRDNAKNTVYLQMNSLKPEDTAVYYCAARYLYYAYSYWCQGTQVTVSS | low polyreactivity
36 | QVQLQESGGGLVQAGGSLRLSCAASGNISVTGFMGWYRQAPGKERELVASIGIGGTTYYADSVKGRFSISRDNGKNTVYLQLNSLKPEDSAVYYCAARYLYYAYSYWGQGTQVTVSS | low polyreactivity
37 | QVQLQESGGGLVQAGGSLRLSCAASGNIYPTVSMGWYRQAPGKEREFVVTIDPGSNTYYADSAKGRFTISRDNAKNTVYLQMNSPKPEDTAVYYCAVVFADWATYGYWGQGTQVTVSS | high polyreactivity
38 | QVQLQESGGGLVQAGGSLRLSCAASGNTSDTGYMGWYRQAPGKERKLVASIDYGSNTYYADSVKVRFTISRDNAKNTVYLQMNSLKPEDTAVYYCAAYYIGDYTLVYWGQGTQVTVSS | high polyreactivity
39 | QVQLQESGGGLVQAGGSLRLSCAASGSIAHYIFMGWYRQAPGKEREFVAGIGYGGTTNYADSVKGRFTISRDNAKNTVYLQMNSLKPEDTAMYYCAAREATEFYLYYWGQGTQVTVSS | low polyreactivity
40 | QVQLQESGGGLVQAGGSLRLSCAASGSIFEELDMGWYRQAPGKEREFVAAIGTGSTTYYADSVKGRFTISRDNAKNTVYLQMNSLKPEDTAVYYCAVDTWARAYLGYWGQGTQVTVSS | high polyreactivity
41 | QVQLQESGGGLVQAGGSLRLSCAASGSIFVSVTMGWYRQAPGKERELVASIGRGSTTNHADSVKGRFTISRDNATNIFYLLMNSLNPEDTAVYYCAALESYGKYHGYWGQGTQVTVSS | low polyreactivity
42 | QVQLQESGGGLVQAGGSLRLSCAASGSISGPHVMGWYRQAPGKEREFVAAINVGANTYYADNVKGRFTISRDNAKNTVYLQMNSLKPEDTAVYYCAAEYGIYETGHYGIYDYWGQGTQVTVSS | low polyreactivity
43 | QVQLQESGGGLVQAGGSLRLSCAASGSISHYIFMGWYRQAPGKEREFVAGIGYGGTTNYADSVKGRFTISRDNAKNTVYLQMNSLKPEDTAMYYCAAREATEFYLYYWGQGTQVTVSS | low polyreactivity
44 | QVQLQESGGGLVQAGGSLRLSCAASGSISILENMGWYRQPPGLGRDFVAGIGYGSSTYYADSVKGRFTISRDNAKNTVYQQMNSLKPEDTTVYYCAVVEYQCVTYLYWGQGSQVTVSS | low polyreactivity
